Test results from US6177557, “High affinity ligands of basic fibroblast growth factor and thrombin” (NeXstar Pharmaceuticals, Inc.).

Key:
thrombin (alpha) [1] = target: T1, thrombin (alpha) (human, UniProt P00734;P00734 P00734:328-363,P00734:364-622); assay: filter; ERL thrombin, 1 mM MgCl2, 37 C
thrombin (alpha) [2] = target: T1, thrombin (alpha); assay: filter; 100 mM NaCl, 50 mM Tris pH 7.7, 1 mM DTT, 1 mM MgCl2, 37 C
thrombin (alpha) [3] = target: T1, thrombin (alpha); assay: filter; 30% binding at 300 nM tracer is not separately tabulated; curve in figure
[4] = target: T2, basic fibroblast growth factor (bFGF) (UniProt P09038 P09038:135-288); assay: filter; tested for affinity (*), Family 2; no value given; settings: tags: Bachem California, 154 aa, 18 kDa
thrombin (alpha) [5] = target: T1, thrombin (alpha); assay: filter; curve only in figure; ERL thrombin
[6] = target: T3, vascular endothelial growth factor (VEGF) (UniProt P15692-4 P15692-4:27-191); assay: filter; settings: chain copies: 2; 6-base G-C stem with blunt end
[7] = target: human chorionic gonadotropin (human, UniProt P01215;P0DN86 P01215:25-116,P0DN86:21-165); assay: filter; settings: 6-base G-C stem with blunt end
[8] = target: T2, basic fibroblast growth factor (bFGF); assay: filter; settings: tags: Bachem California, 18 kDa, 154 aa; 125I-labeled for receptor assays; 6-base G-C stem with blunt end
Experimental: In order to eliminate higher order structures, all DNA solutions were heated to 90° C. in PBS for 2–3 minutes and cooled on ice prior to incubation with protein. Relative binding affinity of individual ligands to bFGF cannot be predicted from sequence information. The majority of sequence isolates were therefore screened for their ability to bind to bFGF by measuring the fraction of radiolabeled DNA bound to nitrocellulose filters following incubation with 1 nM protein. […] Binding of these select isolates was then analyzed in more detail.
Those ligands are M225, M19, m234, M235, and D12 (SEQ ID NOS:359, 353, 387, 360, 332). The minimum size of the region necessary for binding was determined to be 35 bases for M225, M19 and D12 (See Truncations, Table XXI M225t3 (SEQ ID NO:364), M19t2 (SEQ ID NO:365), D12t2 (SEQ ID NO:341)). The ligand with the smallest essential sequence, m234, was isolated from Family 2, Experiment 3 and contains 24 nucleotides (m234t2 (SEQ ID NO:391)). The truncated ligands were tested for binding to bFGF. After truncation, ligands M225t3, M19t2, D12t2, M235t2, and m234t2 have kd values of 0.7 nM, 1 nM, 1 nM, 1 nM, and 6 nM respectively (Table XXII). All five of the truncated molecules lost some of their affinity for bFGF in comparison to the full length ligands. The binding affinity is regained when an additional G-C base pair is added to the blunt end stem of M225t3. This molecule is termed M225t3GC (SEQ ID NO:443). The binding of M225t3GC is 0.2 nM compared to 0.7 nM for M225t3 without the additional base pair (Table XXII).

[9] = target: T2, basic fibroblast growth factor (bFGF); assay: filter; PEG 3400 conjugate; settings: tags: Bachem California, 18 kDa, 154 aa; 125I-labeled for receptor assays
[10] = target: T2, basic fibroblast growth factor (bFGF); assay: filter; tested for affinity (*), Family 3; no value given; settings: tags: Bachem California, 154 aa, 18 kDa
[11] = target: T2, basic fibroblast growth factor (bFGF); assay: filter; PBS, 0.01% HSA, 1 mM DTT, 37 C; +/-0.4; settings: tags: Bachem California, 18 kDa, 154 aa; 125I-labeled for receptor assays
Experimental: (§1) This affinity screening allowed identification of those ligands with highest affinity for bFGF. Binding of a group of these ligands was analyzed over a range of bFGF concentrations (FIG. 5) and their dissociation constants.(Kd's) were determined as described (Jellinek et al. (1993) Proc. Natl. Acad. Sci. USA 90:11227–11231) (Table IX). RNA concentrations were determined from their absorbance reading at […] (and were typically <100 pM). Binding reactions were done at 37° C. in phosphate buffered saline containing 0.01% human serum albumin and 1 mM DTT.

[12] = target: T2, basic fibroblast growth factor (bFGF); assay: filter; PBS, 0.01% HSA, 1 mM DTT, 37 C; +/-0.2; settings: tags: Bachem California, 18 kDa, 154 aa; 125I-labeled for receptor assays
Experimental: as §1

thrombin (alpha) [13] = target: T1, thrombin (alpha); assay: filter; curve only in figure
[14] = target: T2, basic fibroblast growth factor (bFGF); assay: filter; PBS, 0.01% HSA, 1 mM DTT, 37 C; +/-1.1; settings: tags: Bachem California, 18 kDa, 154 aa; 125I-labeled for receptor assays
Experimental: as §1

acidic FGF = acidic FGF (UniProt P05230 P05230:16-155); assay: filter; specificity, data not shown; settings: label: 32P
antithrombin III = antithrombin III (UniProt P01008 P01008:33-464); assay: filter; specificity, data not shown; settings: label: 32P
thrombin (alpha) [15] = target: T1, thrombin (alpha); assay: filter; specificity, data not shown
[16] = target: T3, vascular endothelial growth factor …; assay: filter; specificity, data not shown; settings: chain copies: 2; label: 32P
[17] = target: T2, basic fibroblast growth factor (bFGF); assay: competition; displacement from low-affinity receptor on BHK cells; high-affinity receptor >1 uM; settings: tags: Bachem California, 18 kDa, 154 aa; 125I-labeled for receptor assays; label: 32P
Experimental: Additionally, modified RNA ligands 21A (SEQ ID NO:104), 38B (SEQ ID NO:114) and Random RNAs were tested.
Receptor Binding Studies. bFGF was labeled with ^125I by the Iodo-Gen (Pierce) procedure as described by Moscatelli (1987) J. Cell. Physiol. 131:123. […] The amount of ^125I-bFGF bound to the low- and the high-affinity receptor sites was determined as described by Moscatelli (1987) supra.

[18] = target: T2, basic fibroblast growth factor (bFGF); assay: filter; tested for affinity (*), Family 5; no value given; settings: tags: Bachem California, 154 aa, 18 kDa
[19] = target: T2, basic fibroblast growth factor (bFGF); assay: filter; PBS, 0.01% HSA, 1 mM DTT, 37 C; +/-0.1; settings: tags: Bachem California, 18 kDa, 154 aa; 125I-labeled for receptor assays
Experimental: as §1

T2 sequence (P09038 135-288, one chain of several): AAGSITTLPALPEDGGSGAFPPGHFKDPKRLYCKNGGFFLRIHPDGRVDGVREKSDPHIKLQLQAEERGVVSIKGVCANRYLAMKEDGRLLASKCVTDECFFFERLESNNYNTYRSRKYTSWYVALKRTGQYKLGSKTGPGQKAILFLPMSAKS
T3 sequence (P15692 other isoform, or with tags, fused parts or gaps): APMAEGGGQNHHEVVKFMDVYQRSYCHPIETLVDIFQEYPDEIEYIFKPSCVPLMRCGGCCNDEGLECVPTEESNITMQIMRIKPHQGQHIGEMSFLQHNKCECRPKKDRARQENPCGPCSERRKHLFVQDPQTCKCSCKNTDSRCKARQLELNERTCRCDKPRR
Sequence of antithrombin III (P01008 33-464, one chain of several): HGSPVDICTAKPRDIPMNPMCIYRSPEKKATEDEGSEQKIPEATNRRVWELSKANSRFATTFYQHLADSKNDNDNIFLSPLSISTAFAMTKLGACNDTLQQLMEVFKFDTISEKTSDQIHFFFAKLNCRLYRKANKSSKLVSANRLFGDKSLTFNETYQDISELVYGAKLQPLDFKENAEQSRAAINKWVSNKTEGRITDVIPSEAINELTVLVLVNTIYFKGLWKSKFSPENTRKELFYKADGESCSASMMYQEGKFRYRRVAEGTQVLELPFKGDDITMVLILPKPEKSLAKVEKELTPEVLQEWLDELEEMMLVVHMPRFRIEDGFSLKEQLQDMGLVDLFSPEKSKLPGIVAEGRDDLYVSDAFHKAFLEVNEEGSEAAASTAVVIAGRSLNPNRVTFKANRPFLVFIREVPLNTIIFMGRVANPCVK
Sequence of human chorionic gonadotropin (P01215 25-116, chain 1 of 2, other chains not shown): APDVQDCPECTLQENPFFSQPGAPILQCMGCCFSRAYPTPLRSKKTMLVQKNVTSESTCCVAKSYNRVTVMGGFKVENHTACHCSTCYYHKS
Sequence of acidic FGF (P05230 16-155, one chain of several): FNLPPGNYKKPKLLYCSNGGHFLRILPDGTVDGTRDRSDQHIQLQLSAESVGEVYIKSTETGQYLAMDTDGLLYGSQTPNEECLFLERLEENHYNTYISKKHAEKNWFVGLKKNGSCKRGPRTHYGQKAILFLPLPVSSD

B1: G15D (ssDNA)
DNA: GGTTGGTGTGGTTGG
Thrombin (alpha) [1]
  Kd: ~200 nM

B2: thrombin Class I RNA 16 (ssRNA)
RNA: AGAUGCCUGUCGAGCAUGCUGCAUCCGGAUCGAAGUUAGUAGGCCGAGGUGGUAGCUAAACAGCUUUGUCGACGGG
Thrombin (alpha) [2]
  Kd: ~30 nM

B3: 33R (Class II clone 27 hairpin) (ssRNA)
RNA: GAGCAUGCUGGUGCGGCUUUGGGCGCCGUGCUU
Thrombin (alpha) [3]
  binding result: binds

B4: d46 (ssDNA)
DNA: ATCCGCCTGATTAGCGATACTAACACGGTCTGCTGCGACCCCTCGTACTAACGGTACCAGTACTTGAGCAAAATCACCTGCAGGGG
[4]
  binding result: binds

B5: 24R (Class I clone 16 hairpin) (ssRNA)
RNA: CCGGAUCGAAGUUAGUAGGCCGAG
Thrombin (alpha) [5]
  binding result: binds

B6: M225t3 (ssDNA)
DNA: GCGGGGCTACGTACCGGGGCTTTGTAAAACCCCGC
[6]
  Kd: > 200 nM
[7]
  Kd: > 200 nM
[8]
  Kd: 0.7 nM

B7: PEG-M225t3 (ssDNA)
DNA: B6 DNA
modifications: PEG 3400 on 3' amino linker
[9]
  Kd: 1 nM

B8: m219 (ssDNA)
DNA: GGGAGGACGATGCGGGCAGCGACCGCGGTACAAGGCATAGGGTACAGACGACGACGGGGA
[10]
  binding result: binds

B9: thrombin Class II RNA 27 (ssRNA)
RNA: AGAUGCCUGUCGAGCAUGCUGGUGCGGCUUUGGGCGCCGUGCUUGACGUAGCUAAACAGCUUUGUCGACGGG
Thrombin (alpha) [2]
  Kd: ~60 nM

B10: 2'-NH2 34B (ssRNA)
RNA: GGGAGGACGAUGCGGAACGGGAGGUACGAGAGCGGGAGCGCAUAAAUAGGAAACUCCUUGCACGUCAGACGACUCGCCCGA
modifications: 2'-NH2 pyrimidines
[11]
  Kd: 2 nM

B11: 2'-NH2 59A (ssRNA)
RNA: GGGAGACAAGAAUAACGCUCAAUGUGUGGAAGGGUACCUGAGUGGGGAUGGGUUCGACAGGAGGCUCACAACAGGC
modifications: 2'-NH2 pyrimidines
[12]
  Kd: 1.2 nM

B12: thrombin Class I RNA 18 (ssRNA)
RNA: AGAUGCCUGUCGAGCAUGCUGAUUGUUGCGGAUCGAAGUGAGUAGGCGCUAGUAGCUAAACAGCUUUGUCGACGGG
Thrombin (alpha) [13]
  binding result: binds

B13: 2'-NH2 48B (ssRNA)
RNA: GGGAGGACGAUGCGGCAGGAUAGGAUGGGGUCGGAACCGUGUAUCAUAACGAGUCAUCUCCUGGUCAGACGACUCGCCCGA
modifications: 2'-NH2 pyrimidines
[14]
  Kd: 6.7 nM

B14: 12A (ssRNA)
RNA: GGGAGCUCAGAAUAAACGCUCAAGGGGCAACGCUACAGACAAGUGCACCCAACUUCGACAUGAGGCCCGGAUCCGGC
Acidic FGF
  Kd: > 300 nM
Antithrombin III
  Kd: > 300 nM
Thrombin (alpha) [15]
  Kd: > 300 nM
[16]
  Kd: > 300 nM
[17]
  IC50: > 100 nM

B15: d9 (ssDNA)
DNA: ATCCGCCTGATTAGCGATACTCGAAGAGTAGGAGGCGATCCGCTCCGTATCAGGTCACATAGGACTTGAGCAAAATCACCTGCAGGGG
[18]
  binding result: binds

B16: thrombin Class I RNA 6 (ssRNA)
RNA: AGAUGCCUGUCGAGCAUGCUGAGGAUCGAAGUUAGUAGGCUUUGUGUGCUCGUAGCUAAACAGCUUUGUCGACGGG
Thrombin (alpha) [13]
  binding result: binds

B17: 2'-NH2 21A (ssRNA)
RNA: GGGAGACAAGAAUAACGCUCAAGUAGACUAAUGUGUGGAAGACAGCGGGUGGUUCGACAGGAGGCUCACAACAGGC
modifications: 2'-NH2 pyrimidines
[19]
  Kd: 1.3 nM

B18: d1 (ssDNA)
DNA: ATCCGCCTGATTAGCGATACTACACCCAACCCCCTAAGATTTTAGAGCAACTCGGCGCAACACTTGAGCAAAATCACCTGCAGGGG
[18]
  binding result: binds

B19: d44 (ssDNA)
DNA: ATCCGCCTGATTAGCGATACTGACCACGACTGATGCGTCGCCTCCCGATAGGCAGTTACCCACTTGAGCAAAATCACCTGCAGGGG
[4]
  binding result: binds
